US12692303

What was measured:
[1] = target: Human interleukin 23 (hIL-23) (human) (UniProt Q9NPF7); test: cell-based or functional assay
[2] = target: Human interleukin 23 (hIL-23) (human) (UniProt Q9NPF7); test: SPR, Biacore T200, antibody captured on Protein A chip, IL-23 in flow, 25 °C, 1:1 model
Natural IL-23 (human) = Natural IL-23 (human) (UniProt Q9NPF7); test: binding ELISA, antibody coated at 1 µg/ml, IL-23 titrated, anti-His detection
Sequence of Natural IL-23 (human) (Q9NPF7 20-189 limits assumed, chain 1 of 2): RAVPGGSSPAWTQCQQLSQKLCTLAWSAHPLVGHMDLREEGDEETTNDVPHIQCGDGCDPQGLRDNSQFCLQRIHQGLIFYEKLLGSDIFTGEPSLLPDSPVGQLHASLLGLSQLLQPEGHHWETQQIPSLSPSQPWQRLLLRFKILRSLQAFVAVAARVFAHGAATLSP
Sequence of Natural IL-23 (human) (chain, as listed by the source limits assumed, chain 2 of 2): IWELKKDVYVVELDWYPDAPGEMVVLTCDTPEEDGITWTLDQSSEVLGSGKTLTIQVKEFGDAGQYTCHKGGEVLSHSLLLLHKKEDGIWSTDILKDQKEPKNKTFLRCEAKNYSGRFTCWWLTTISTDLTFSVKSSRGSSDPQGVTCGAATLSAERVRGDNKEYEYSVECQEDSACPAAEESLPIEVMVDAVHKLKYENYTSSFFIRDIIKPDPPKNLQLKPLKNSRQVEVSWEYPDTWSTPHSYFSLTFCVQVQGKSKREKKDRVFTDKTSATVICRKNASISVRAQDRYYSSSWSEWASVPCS

Sequence of Human interleukin 23 (hIL-23) (human) (Q9NPF7 20-189 limits assumed, chain 1 of 2): as the sequence (Q9NPF7 20-189 limits assumed, chain 1 of 2) above
Sequence of Human interleukin 23 (hIL-23) (human) (chain, as listed by the source limits assumed, chain 2 of 2): as the sequence (chain, as listed by the source limits assumed, chain 2 of 2) above

IC50, inhibition of phosphorylation of STAT3 in HEK Blue IL-23 cells induced by IL-23 [1]: 3.51 ng/mL
IC50, inhibition of release of IFN-γ from human NK cells induced by IL-23 [1]: 11.1 ng/mL
IC50, inhibition of release of IL-17A from mouse spleen cells induced by IL-23 [1]: 8.43 ng/mL
Kd [2]: 0.052 nM
koff [2]: 3.7e-05 s⁻¹
kon [2]: 706000 M⁻¹ s⁻¹
EC50 (Natural IL-23 (human)): 1.8 ng/mL
B1: Risankizumab (antibody, INN chains, looked up, V domains shown)
VH: QVQLVQSGAEVKKPGSSVKVSCKASGYTFTDQTIHWMRQAPGQGLEWIGYIYPRDDSPKYNENFKGKVTITADKSTSTAYMELSSLRSEDTAVYYCAIPDRSGYAWFIYWGQGTLVTVSS
VL: DIQMTQSPSSLSASVGDRVTITCKASRDVAIAVAWYQQKPGKVPKLLIYWASTRHTGVPSRFSGSGSRTDFTLTISSLQPEDVADYFCHQYSSYPFTFGSGTKLEIKR
